B1: His6–l-afadin-C199 (domain or fragment, UniProt O35889-1 1631-1829, looked up)
chain: DRVRQEEDGRHQEEERVKRDAEEKRRQEEGYYSRLEAERRRQHEEAARRLLEPEEPGLSRPPLPQDYEPPSQSSAPSAPPPPPQRNASYLKTQVLSPDSLFTAKFVAYDDDDEEENYVPAGPNSYSGSAGTTAGTYDAPRDTREKLSRSQDADLPGSSGAPENLTFRERQRLFSQGQDVSDKVKASRKLTELENELNTK

What was measured:
Experiment in all cases: pull-down
His6–l-afadin-C199 = molecular target: B1
[1] = molecular target: T1, GST–ponsin-2-F (the full length) (mouse, UniProt Q62417-3 1-724)
T1 sequence (looked up): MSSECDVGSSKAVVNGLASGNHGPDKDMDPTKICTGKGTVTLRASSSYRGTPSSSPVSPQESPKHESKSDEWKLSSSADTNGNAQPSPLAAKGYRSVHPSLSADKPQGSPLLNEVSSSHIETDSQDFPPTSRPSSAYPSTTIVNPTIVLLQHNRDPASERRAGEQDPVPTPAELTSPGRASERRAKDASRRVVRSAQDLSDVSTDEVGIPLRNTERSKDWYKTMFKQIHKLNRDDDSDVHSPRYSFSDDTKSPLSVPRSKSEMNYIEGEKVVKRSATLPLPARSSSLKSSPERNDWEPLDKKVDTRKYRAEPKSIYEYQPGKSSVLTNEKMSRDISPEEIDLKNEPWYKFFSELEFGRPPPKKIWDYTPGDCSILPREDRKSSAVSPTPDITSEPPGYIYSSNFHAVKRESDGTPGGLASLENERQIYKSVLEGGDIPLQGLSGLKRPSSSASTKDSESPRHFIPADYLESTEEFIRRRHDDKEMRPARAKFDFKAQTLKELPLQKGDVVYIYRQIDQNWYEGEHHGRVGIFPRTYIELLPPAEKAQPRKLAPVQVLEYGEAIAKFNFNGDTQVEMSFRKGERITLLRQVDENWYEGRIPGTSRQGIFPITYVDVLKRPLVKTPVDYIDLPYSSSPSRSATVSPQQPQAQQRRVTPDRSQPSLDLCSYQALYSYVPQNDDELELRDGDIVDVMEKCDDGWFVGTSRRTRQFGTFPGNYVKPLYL

[2] = molecular target: T2, GST–ponsin-2-C (the COOH-terminal half) (mouse, UniProt Q62417-3 401-724)
T2 sequence (looked up): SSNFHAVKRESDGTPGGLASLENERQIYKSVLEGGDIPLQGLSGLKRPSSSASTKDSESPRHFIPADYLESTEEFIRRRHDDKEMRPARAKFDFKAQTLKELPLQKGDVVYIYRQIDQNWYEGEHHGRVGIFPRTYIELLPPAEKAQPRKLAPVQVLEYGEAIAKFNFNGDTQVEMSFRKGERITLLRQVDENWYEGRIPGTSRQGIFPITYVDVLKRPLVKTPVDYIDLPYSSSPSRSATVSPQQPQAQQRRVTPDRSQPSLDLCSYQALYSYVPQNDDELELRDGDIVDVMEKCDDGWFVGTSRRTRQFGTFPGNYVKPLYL

Binder | binding result (His6–l-afadin-C199) | binding result [1] | binding result [2]
GST–ponsin-2-SH3(2+3) (the second and third SH3 domains) (domain or fragment, mouse, UniProt Q62417-3 543-724, looked up) AEKAQPRKLAPVQVLEYGEAIAKFNFNGDTQVEMSFRKGERITLLRQVDENWYEGRIPGTSRQGIFPITYVDVLKRPLVKTPVDYIDLPYSSSPSRSATVSPQQPQAQQRRVTPDRSQPSLDLCSYQALYSYVPQNDDELELRDGDIVDVMEKCDDGWFVGTSRRTRQFGTFPGNYVKPLYL | binds | – | –
B1 | – | binds | binds
